Positions count from the first letter of the chain named.

Experiment [1] has as its target T1, human EphA2 on OVCAR-3 and U-251 cells (human, UniProt P29317 24-976).
T1 construct: whole, on cells; also called EphA2 receptors
Nature of the experiment: CLIA: scFv-decorated fluorescent NTA(Ni) liposomes on EphA2-expressing cells, FACS. As for the experimental part: To test the anti-EphA2 activity of these variant scFvs, the binding and internalization of liposomes externally decorated with these Abs was assayed on cell lines expressing EphA2. A rapid high-throughput Chelated Ligand-induced Internalization Assay (CLIA) (Nielsen et al., BMC immunology, 2006, 7:24) was used to screen anti-EphA2-scFv-targeted liposomes for binding and internalization assessment. Two cell lines that express high levels of EphA2 receptors, OVCAR-3 and U-251, were tested, as well as a murine EphA2-expressing mouse cell line, CT-26 (to test whether cross-reactivity to murine EphA2 was retained by the engineered scFvs). Via nickel-binding by each scFv's c-terminal His6 tag, the scFvs were bound to fluorescently labeled liposomes comprising an NTA(Ni) conjugated lipid (Dil5-NTA liposomes).
Dil5-NTA liposomes were prepared as follows. The NTA conjugated lipid, DOD-Tri-NTA, was synthesized as described in Huang et al., Bioconjugate chemistry, 2006, vol. 17, p. 1592-1600. Hydrogenated soy phosphatidylcholine (HSPC), cholesterol, methoxy-PEG(2000)-distearoylphosphatidylethanolamine (PEG-DSPE), DOD-tri-NTA, and a fluorescent lipid dye, Dil5, (ThermoFisher® Invitrogen® Molecular Probes™, cat. # D12370) were combined in a chloroform solution at the molar ratio of 100:66.7:5:0.5:0.3 respectively and the solution evaporated under vacuum to dryness forming a lipid film. The film was hydrated in HEPES-buffered physiological saline (“HBS-6.5”—5 mM HEPES, 144 mM NaCl pH 6.5) at 68° C., the resulting lipid suspension was subjected to several cycles of freezing (dry ice-acetone) and thawing (68C), and extruded through two stacked polycarbonate membranes (Whatman Nuclepore, USA) with the pore size of 200 nm (6 times) and 100 nm (10 times) using Lipex™ thermobarrel extruder (Northern Lipids, Canada). This protocol typically produces unilamellar vesicles with the z-average size of 100-110 nm and polydispersity index less than 0.1. The extruded liposomes were chilled to room temperature, purified by gel-chromatography on a Sephadex® G-75 (GE Healthcare) column eluted with HBS-6.5, and then sterilized by passage through a 0.2-μm filter. The concentration of liposomal phospholipid was then determined after acid digestion using spectrophotometric phosphomolybdate method.

Experiment [2] addresses Staphylococcus aureus Protein A (Staphylococcus aureus, UniProt P38507 37-477). Nature of the experiment: Protein A binding measured as in Example 1, compared to TS1C. As for the experimental part:
Protein A binding for multiple samples was determined as follows: scFvs expressed by mammalian cells were obtained from cultures by centrifugation at 4000 g for 15 minutes to remove cells. The scFv titer in the supernatant was determined using Fortebio. Protein A binding was assayed using a 96 well Protein A plate (Protein A 96 well protein purification plate (GE Healthcare: Life Sciences, Protein A HP MultiTrap®) which contains Protein A-conjugated resin in wells with porous bottoms, allowing liquid in the wells to be collected from underneath via centrifugation or suction. Each well of the plate was washed with 1×PBS, and supernatant containing 250 μg of protein was loaded into each well. The supernatant is then separated from the Protein A resin using a vacuum manifold (Whatman®) with 10 mbar of pressure and the flow-through from each well separately collected into empty wells of a standard 96 well plate. The wells of the Protein A plate were then washed with 600 μL of 1×PBS (pH 7.6). To elute the resin-bound Ab, 200 μL of 0.1M acetic acid was added to each well and incubated at room temperature for 3-10 minutes. The plate was placed over a second plate to capture eluate and centrifuged at 100×g for 2 minutes, and 20 μL of 1M Tris, pH 8.0 was added to neutralize the Abs in the eluate. To determine the percentage of Protein A binding, the concentration of scFv remaining in the flow-through was compared to the amount of protein (250 ug) loaded originally.
The fold improvement in Protein A binding capacity (as compared to TS1C) was measured as described in Example 1.

Experiment [3] deals with T2, His6-tagged recombinant human EphA2 protein (human, UniProt P29317 25-534).
T2 construct: also called his-tagged recombinant, human EphA2; human EphA2 with c-terminal His6
T2 sequence (P29317 25-534 limits assumed): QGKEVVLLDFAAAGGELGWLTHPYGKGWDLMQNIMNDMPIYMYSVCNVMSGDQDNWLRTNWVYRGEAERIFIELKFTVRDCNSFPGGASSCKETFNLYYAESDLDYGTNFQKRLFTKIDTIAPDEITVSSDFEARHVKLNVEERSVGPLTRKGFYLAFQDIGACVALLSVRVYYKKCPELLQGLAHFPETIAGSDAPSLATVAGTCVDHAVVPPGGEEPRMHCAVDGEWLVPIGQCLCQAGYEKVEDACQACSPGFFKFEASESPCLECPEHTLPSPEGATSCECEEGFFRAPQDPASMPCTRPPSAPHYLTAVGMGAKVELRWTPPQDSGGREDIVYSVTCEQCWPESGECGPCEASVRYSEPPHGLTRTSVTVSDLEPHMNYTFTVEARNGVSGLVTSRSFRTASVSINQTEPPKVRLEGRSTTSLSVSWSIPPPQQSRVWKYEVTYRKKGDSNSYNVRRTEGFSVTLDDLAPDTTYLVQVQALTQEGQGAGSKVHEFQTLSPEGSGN
In words: BLI (Octet Red 96); His6-EphA2 on anti-His sensors; scFv-PEG-DSPE conjugate at 2.5 ug/ml after thermal stress. The text has this: (§1) A nucleic acid encoding human EphA2 with c-terminal His6 appended was cloned into expression vector pCEP4 (Invitrogen® # V044-50) and transiently expressed in FreeStyle™ 293 cells (Invitrogen® #K900001) following polyethylenenimine transfection. The His6-tagged recombinant human EphA2 protein was purified from the cell culture medium using Ni-NTA Sepharose™ resin (Quiagen®, USA). Anti-His sensors for the fortéBIO® Octet Red 96 system (fortéBIO®-Pall® #18-5116) were coated with his-tagged recombinant, human EphA2 at concentration of 10 μg/ml protein for 300 sec, and a background run was carried out in PBS for 60 sec. For scFv-PEG-DSPE conjugates, the sensors were then incubated with 2.5 μg/ml (Study 1) or 4.0 μg/ml (Study 2) of the conjugate in PBS, pH 7.4, and the slopes of association curves were determined between 3-13 seconds of incubation, corrected for the buffer-only background, and compared across the variants. ScFv-linked liposomes were incubated with the sensors in PBS at 0.025 mM of liposome phospholipid, the slopes of the association curves were determined between 3-20 seconds of incubation, corrected for the buffer-only background, and compared across the variants.
(§2) Results are shown below in Table 6, in which column A gives scFv identifiers; column B indicates percent yield of scFv/lipopolymer linker conjugates; column C gives percent scFv-conjugate (not liposome-bound) EphA2 binding on-rate; column D gives percent scFv-conjugated-liposome EphA2 binding on-rate; and columns E (Study 1) and F (study 2) give percent antigen binding on-rate remaining in the scFv-conjugate (not liposome-bound) following thermal stress.
(Biolayer interferometry detects binding as a change in optical thickness at a sensor tip.)

Experiment [4] concerns the target T2, His6-tagged recombinant human EphA2 …. In words: BLI (Octet Red 96); His6-EphA2 on anti-His sensors; scFv-PEG-DSPE conjugate at 4.0 ug/ml after thermal stress.
Source text: as §1, §2

The target is the same in experiment [5]. In words: BLI (Octet Red 96); His6-EphA2 on anti-His sensors; slope of association curve of scFv-PEG-DSPE conjugate; TS1C printed as 100.
Source text: as §1, §2

The target is the same in experiment [6]. In words: BLI (Octet Red 96); His6-EphA2 on anti-His sensors; slope of association curve of scFv-linked liposomes at 0.025 mM phospholipid; TS1C printed as 100.
Source text: as §1, §2

T1 sequence (P29317 24-976): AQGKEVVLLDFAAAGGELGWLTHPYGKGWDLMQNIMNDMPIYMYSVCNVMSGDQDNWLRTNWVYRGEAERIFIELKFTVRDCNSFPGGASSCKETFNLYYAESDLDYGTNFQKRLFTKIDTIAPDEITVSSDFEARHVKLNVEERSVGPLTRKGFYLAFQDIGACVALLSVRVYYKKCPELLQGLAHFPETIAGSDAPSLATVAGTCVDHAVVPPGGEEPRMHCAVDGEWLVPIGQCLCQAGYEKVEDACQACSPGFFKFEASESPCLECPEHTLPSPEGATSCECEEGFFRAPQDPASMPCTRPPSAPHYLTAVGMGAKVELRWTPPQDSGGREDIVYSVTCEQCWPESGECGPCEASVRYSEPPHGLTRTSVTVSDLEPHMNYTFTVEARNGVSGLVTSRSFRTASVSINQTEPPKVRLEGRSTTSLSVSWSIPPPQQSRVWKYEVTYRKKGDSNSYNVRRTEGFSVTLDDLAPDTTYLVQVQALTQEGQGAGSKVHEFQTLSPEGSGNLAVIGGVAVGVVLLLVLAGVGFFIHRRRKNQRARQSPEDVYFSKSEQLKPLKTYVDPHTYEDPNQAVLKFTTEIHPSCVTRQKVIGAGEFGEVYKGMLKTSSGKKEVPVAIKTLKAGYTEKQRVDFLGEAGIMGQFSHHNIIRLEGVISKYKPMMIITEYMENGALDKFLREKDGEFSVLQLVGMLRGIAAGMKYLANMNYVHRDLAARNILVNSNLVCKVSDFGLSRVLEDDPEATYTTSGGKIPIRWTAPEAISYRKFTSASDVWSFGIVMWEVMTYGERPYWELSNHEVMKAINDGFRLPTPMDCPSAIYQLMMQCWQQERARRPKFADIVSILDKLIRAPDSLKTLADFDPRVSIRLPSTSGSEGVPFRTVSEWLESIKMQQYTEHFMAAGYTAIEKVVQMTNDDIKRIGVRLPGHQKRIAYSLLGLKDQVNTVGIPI

B1: scFv-3 (scFv)
scFv: QVQLVQSGGGLVQPGGSLRLSCAASGFTFSSYAMHWVRQAPGKGLEWVTVISPDGHNTYYADSVKGRFTISRDNSKNTLYLQMNSLRAEDTAVYYCARASVGATGPFDIWGQGTLVTVSSASTGGGGSGGGGSGGGGSGGGGSSSELTQPPSVSVAPGQTVTITCQGDSLRSYYASWYQQKPGTAPKLLIYGENNRPSGVPDRFSGSSSGTSASLTITGAQAEDEADYYCNSRDSSGTHLTVFGGGTKLTVLG
Take B1: in experiment [1], the binding result is reported as “binds”.

B2: scFv-3C (scFv)
scFv: QVQLVQSGGGLVQPGGSLRLSCAASGFTFSSYAMHWVRQAPGKGLEWVTVISPDGHNTYYADSVKGRFTISRDNSKNTLYLQMNSLRAEDTAVYYCARASVGATGPFDIWGQGTLVTVSSASTGGGGSGGGGSGGGGSGGGGSSSELTQPPSVSVAPGQTVTITCQGDSLRSYYASWYQQKPGTAPKLLIYGENNRPSGVPDRFSGSSSGTSASLTITGAQAEDEADYYCNSRDSSGTHLTVFGGGTKLTVLGGGSGGC
notes: also called clone 3
For the molecule B2, in experiment [2], the “Fold Improvement in Protein A Binding Capacity” value (shortened to “Fold Improvement”) amounted to 6 fold. Also, the “percent antigen binding on-rate remaining in the scFv-conjugate following thermal stress (Study 1)” value in experiment [3] amounted to 56.5%. Further, in experiment [4], the “percent antigen binding on-rate remaining in the scFv-conjugate following thermal stress (Study 2)” value worked out at 46.9%. Besides, the “percent scFv-conjugate (not liposome-bound) EphA2 binding on-rate” value in experiment [5] turned out to be 112%. Also, in experiment [6], the “percent scFv-conjugated-liposome EphA2 binding on-rate” value was 119%.

B3: scFv-2C (scFv)
scFv: B2 scFv with T49S, D54A, H56R, T58K
notes: also called clone 2
Consider B3, for which the “Fold Improvement” value in experiment [2] was determined as 5.5 fold. In experiment [3], the “percent antigen binding on-rate remaining in the scFv-conjugate following thermal stress (Study 1)” value stood at 44.6%. Also, the “percent antigen binding on-rate remaining in the scFv-conjugate following thermal stress (Study 2)” value in experiment [4] was 26.9%. Further, the “percent scFv-conjugate (not liposome-bound) EphA2 binding on-rate” value in experiment [5] was 105%. In experiment [6], the “percent scFv-conjugated-liposome EphA2 binding on-rate” value stood at 117%.

B4: scFv-13C (scFv)
scFv: B2 scFv with D54T, H56A
notes: also called clone 13
For the molecule B4, the “percent antigen binding on-rate remaining in the scFv-conjugate following thermal stress (Study 1)” value in experiment [3] worked out at 18.2%. In addition, in experiment [4], the “percent antigen binding on-rate remaining in the scFv-conjugate following thermal stress (Study 2)” value worked out at 9%. Also, the “percent scFv-conjugate (not liposome-bound) EphA2 binding on-rate” value in experiment [5] was 105%. Besides, the “percent scFv-conjugated-liposome EphA2 binding on-rate” value in experiment [6] was determined as 120%.

B5: scFv-7C (scFv)
scFv: B2 scFv with T49S, D54A, H56P
notes: also called clone 7
B5: in experiment [2], the “Fold Improvement” value was 10.3 fold. Moreover, in experiment [3], the “percent antigen binding on-rate remaining in the scFv-conjugate following thermal stress (Study 1)” value was 5.8%. In addition, the “percent antigen binding on-rate remaining in the scFv-conjugate following thermal stress (Study 2)” value in experiment [4] was 4.8%. Moreover, the “percent scFv-conjugate (not liposome-bound) EphA2 binding on-rate” value in experiment [5] came out at 110%. In addition, in experiment [6], the “percent scFv-conjugated-liposome EphA2 binding on-rate” value turned out to be 119%.

B6: scFv-16C (scFv)
scFv: B2 scFv with T49S, P53N, D54N
For B6, the “percent antigen binding on-rate remaining in the scFv-conjugate following thermal stress (Study 2)” value in experiment [4] worked out at 4.6%. Further, the “percent scFv-conjugate (not liposome-bound) EphA2 binding on-rate” value in experiment [5] was found to be 128%. Further, in experiment [6], the “percent scFv-conjugated-liposome EphA2 binding on-rate” value amounted to 113%.

B7: scFv-11C (scFv)
scFv: B2 scFv with T49A, P53H, D54H, H56S
notes: also called clone 11
Regarding B7, the “Fold Improvement” value in experiment [2] was 8.5 fold. In experiment [3], the “percent antigen binding on-rate remaining in the scFv-conjugate following thermal stress (Study 1)” value amounted to 1.6%. The “percent antigen binding on-rate remaining in the scFv-conjugate following thermal stress (Study 2)” value in experiment [4] is -0.09%. In experiment [5], the “percent scFv-conjugate (not liposome-bound) EphA2 binding on-rate” value was 109%. The “percent scFv-conjugated-liposome EphA2 binding on-rate” value in experiment [6] was found to be 120%.

B8: scFv-10C (scFv)
scFv: B2 scFv with T49S, V50A, D54P
notes: also called clone 10
On to B8, for which the “Fold Improvement” value in experiment [2] came to 12.3 fold. The “percent antigen binding on-rate remaining in the scFv-conjugate following thermal stress (Study 1)” value in experiment [3] came to 88.9%. In addition, the “percent antigen binding on-rate remaining in the scFv-conjugate following thermal stress (Study 2)” value in experiment [4] was 98.8%. For the same molecule, in experiment [5], the “percent scFv-conjugate (not liposome-bound) EphA2 binding on-rate” value is 104%. For the same molecule, the “percent scFv-conjugated-liposome EphA2 binding on-rate” value in experiment [6] worked out at 110%.

B9: scFv-9C (scFv)
scFv: B2 scFv with D54N
notes: also called clone 9
For B9, the “percent antigen binding on-rate remaining in the scFv-conjugate following thermal stress (Study 1)” value in experiment [3] was found to be 25.2%. For the same molecule, the “percent antigen binding on-rate remaining in the scFv-conjugate following thermal stress (Study 2)” value in experiment [4] worked out at 12.2%. Further, the “percent scFv-conjugate (not liposome-bound) EphA2 binding on-rate” value in experiment [5] amounted to 114%. Besides, the “percent scFv-conjugated-liposome EphA2 binding on-rate” value in experiment [6] stood at 118%.

B10: scFv-19C (scFv)
scFv: B2 scFv with T49S, D54P
For B10, the “percent antigen binding on-rate remaining in the scFv-conjugate following thermal stress (Study 2)” value in experiment [4] came to 5.1%. Moreover, in experiment [5], the “percent scFv-conjugate (not liposome-bound) EphA2 binding on-rate” value amounted to 112%. Further, the “percent scFv-conjugated-liposome EphA2 binding on-rate” value in experiment [6] came to 129%.

B11: scFv-8C (scFv)
scFv: B2 scFv with D54S
notes: also called clone 8
Take B11: the “percent antigen binding on-rate remaining in the scFv-conjugate following thermal stress (Study 1)” value in experiment [3] worked out at 19.8%. In experiment [4], the “percent antigen binding on-rate remaining in the scFv-conjugate following thermal stress (Study 2)” value came out at 7.3%. Also, the “percent scFv-conjugate (not liposome-bound) EphA2 binding on-rate” value in experiment [5] worked out at 113%. For the same molecule, the “percent scFv-conjugated-liposome EphA2 binding on-rate” value in experiment [6] stood at 133%.
